The results in this text go back to a protein production outcome set (Wang et al. 2014).
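Note: failed if final PepcDB status was selected cloned or expressed and not failed if soluble or beyond.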

The data set can be described thus: label from the status in PepcDB records.
For the sequence “MLTYQVKQGDTLNSIAADFRISTAALLQANPSLQAGLTAGQSIVIPGLPDPYTIPYHIAVSIGAKTLTLSLNNRVMKTYPIAVGKILTQTPTGEFYIINRQRNPGGPFGAYWLSLSKQHYGIHGTNNPASIGKAVSKGCIRMHNKDVIELASIVPNGTRVTINR”, the protein production result is on record as “not failed”.
Regarding “MLVAAQQQGPPMPRPSHLMILALTAAALYIYALASDNTMLALMAKPIPVLALIAWLRSTPVSPYRTWISIGLGFSVLGDILLAIPADLFVFGLAAFLCAHLAYLRGYCGITLRPALPALIFSAITGIALLGVLASNGLGPLLIPVALYALAISAMLWRALACGGVAALGAGLFVFSDSLIGIDRFISPFAAAPYLIILAYWLGQWAIASSVGHRSTDKVLTQSGARRTESC”, the protein production entry is given as “failed”.
As for “MLVAPFASQLPFVEETLHSSYQALQWGKNIFAIAHKTLSARLLNTVFPTEERTQPLSPELQAWLKERYEALLQQDWQDAAAGFYPATLLFDAPWEEFLRFYPLLLLDLPQMWQRARSRQFQEFAHNVRLEDYPQYYRQNFHYQTDGYLSDTSANLYDIQVELLFGGTADAMRRRVIAPIAQQVVAHPPTPPLRILDVACGTGRTLKQLRYAFPGAVLFGLDLSPAYLRKANALLATQTGALPQLIQGNAESLPYVDSYFSAITCVFLFHELPAPVRQNVIHECARVLQPGGIFVICDSIQSLDSPEQRPMMENFANLFHEPFYRNYIEDDLNLRLEKAGLVVKEVQHHFMSKYWVAVKPSLEHHHHHH”, the protein production result was “failed”.
Regarding “MLVCYSVLACEILWDLPCSIMGSPLGHFTWDKYLKETCSVPAPVHCFKQSYTPPSNEFKISMKLEAQDPRNTTSTCIATVVGLTGARLRLRLDGSDNKNDFWRLVDSAEIQPIGNCEKNGGMLQPPLGFRLNASSWPMFLLKTLNGAEMAPIRIFHKEPPSPSHNFFKMGMKLEAVDRKNPHFICPATIGEVRGSEVLVTFDGWRGAFDYWCRFDSRDIFPVGWCSLTGDNLQPPGTKVVIPKNPYPASDVNTEKPSIHSSTKTVLEHQPGQRGRKPGKKRGRTPKTLISHPISAPSKTAEPLKFPKKRGPKPGSKRKPRTLLNPPPASPTTSTPEPDTSTVPQDAATIPSSAMQAPTVCIYLNKNGSTGPHLDKKKVQQLPDHFGPARASVVLQQAVQACIDCAYHQKTVFSFLKQGHGGEVISAVFDREQHTLNLPAVNSITYVLRFLEKLCHNLRSDNLFGNQPFTQTHLSLTAIEYSHSHDRYLPGETFVLGNSLARSLEPHSDSMDSASNPTNLVSTSQRHRPLLSSCGLPPSTASAVRRLCSRGVLKGSNERRDMESFWKLNRSPGSDRYLESRDASRLSGRDPSSWTVEDVMQFVREADPQLGPHADLFRKHEIDGKALLLLRSDMMMKYMGLKLGPALKLSYHIDRLKQGKF”, the protein production result was “failed”.
With “MLVEDSGHHLPESADIENALDLLLKAQLERAFGPELAEHFWAARQPRTLDERLAFIRKCWIGVFKDSPLSTFGLERLEQLERLCRSKRRGRELSAAEHHQFAEELARLWEQVQRLLPRAAPETSYASSASAGGVHSGDAHTPATLSDAESAHAAPEAMRIEAPATSARSASGCMARVSSDVAAAATNVSLVVLDGENIAWAHGQNAVFSPKGIAIAVDFFRKRGYRCVVFLPDYRRKRADLPTVSASDALVFVPAGEYDDTFALGYAVGHDAILVTNDLLQDHLDQFYPDEGEAREALRKWLGSHRCSFTFVGDEFLPNPHFFLP”, the protein production entry was “failed”.
For “MLVFLTRFTPMNLIRNRWAQIFTQSILGVLIAGGTAWAGDPFRPNNPHNIGDQTEAAFEAIFRDGNYRGAEEILAGAIQAEPNEPLVYAMQASFAYDANDMEGMRKYAQQTLESAQRLAPSDPLRGNLYIAVGHFLEGSYLLKKGSYLQAVGKTGTVFEHLDKASAINPNDPELNLLRGYLDLFLSRYTPFSQSEQVISRFEQYAAPDYLRYRALATTYRDLEKYDLAMANIDRALAITPDNPELQYLKGQFLRNEGRRSMDLGKLQQAQQYYAMALQKQDQLSRALVVQLNHENNAVVDEIQKLAQNPSLKGF” the value was “failed”.
Consider “MLVGPAPTTDGSAENTLNEKRLVHGSIAFWLGPRAPQTKTHRWTVYVRGARDPLEDLSLYIQKVEFVLHESFADPVRVVKEPPFCLTEHGWGEFEVIIRLFPISDPDKPVEMYHPLRLFPSVGQELTEKPVVSEHLDVLVFSQPAPEVERALHRSDVARMPSDCWGDLMPLFGGDLHQVEEEDLRKVQQARERVRQQIQATRLQYEALTAELARARTHALHRELS”, for which the protein production entry is reported as “not failed”.
For “MLVGSQLIEIVIDSLRYENLKEILDEMFRDEVQKLKYFLEDVKEEDEELYNKIVDALKLFKENYEIEDIKIPKKIRVFLVKNNILFLNPQKGSLKPQSYLVWNAIKMLL”, the protein production entry is recorded as “failed”.
In the case of “MLVRLKETDQRTMISRIKALAPPVQKAGAALLIDGHAELVARGGADGAHLPGIAALKEALPSLKPDRIAGVGGLTTRHHSMDAGEIGADYLLFGEPDAKGQRPSSEAIAERLDWWAELFEPPCVGFATSLEEAYDFAASGADFVLVGEFVWADPRGAKAALIEADATIKKAHAAALASQNPAGEHG”, the protein production entry is “failed”.
For “MLVRLTMICNGATAATRRGSFPLDEPLEPRSLTRAKAMRGTLRHADRAWTAPALRARQIAEALSLEAAVEPLLADQDHGSWAGKSFEDVQAEQPGDIAAWLADPDAAPHGGESLADVARRASGLMEKLMAEPGHTIAMTHASVIRTAIVHVLGAPLAACWKIDIEPLSITDFRSDGRRWVLRACGVTSPKAAKPLLR”, the protein production entry is “failed”.
As to “MLVTKLAPDFKAPAVLGNNEVDEHFELSKNLGKNGAILFFWPKDFTFVCPTEIIAFDKRVKDFQEKGFNVIGVSIDSEQVHFAWKNTPVEKGGIGQVTFPMVADITKSISRDYDVLFEEAIALRGAFLIDKNMKVRHAVINDLPLGRNADEMLRMVDALLHFEEHGEVCPAGWRKGDKGMKATHQGVAEYLKENSIKL”, the protein production result is on record as “failed”.
For “MLWTQVYDPFSNITLSAMVAMLPLAILFYMLAVRRAKGHVAAACGLAGAFAATVAVWGMPAGLAVNATLYGVAMGLFPIIWIVLTAVWLYNMTVESGEFEIIKSSLARLTDDRRLQALFIAFAFGAFLEGTAGFGTPVAITAAMLMGLGFSPVYAGGICLIANTAPVAFGALGIPVIVASQVSGLDTLTLSQYVGRQLPVFSLIVPLWMTVVMCGFKRTMEVMPAIVVASVCFSGTQFIFADWHGPTLPDVMAAIVTIVGLLVLLRFWKPARTWHFADEKPEAATGETRHSTGEVLRAWAPYAILAVFVFFWGLGSVKTFLNNIFIMSFEWPGLHAAIAKTAPIVKADAPYAAKFTFNLISAGGTAILFAGLLSVPVMPGYGYGRAFGCLARTCYQLRFPILTIVMILGLAQLMNYSGMSSTLGIAFTHTGALFPFFAPIMGWLGVFLTGSNTSSNALFGSMQHATASAVGVDPYLTVAANATGGVTGKMISPQSISVATASTHTVGQEGALFRFALKHSIAMTLVICVLVTLQAYVIPWMLPAR” the value was “failed”; for “MLYDLTVVQFSKMLKNLNAIFDKAEAFAELKKVDMDVLLNSRLAADQFNLIRQVQIACDTAKVGVARLTGQLETAPKHDDSETTLAELRQRIASVLTYLEGFSEADFANAATIQISQPRWQGKYLTGYEFAIEHAIPNLYFHITTAYGILRHNGVEVGKKDYLGAMPYKAPIL”, “not failed”; for “MLYLAELLQGKNALITGAGRGIGRAVAIALAKEGVNVGLLARSEENLKAVAKEVEAEGVKAVIATADVSSYEEVTTAIETLKNGLGSIDILINNAGISKFGKFLELDVADWEKIIQVNLMGVYYATRAALPSMIEQQSGDIINISSTAGQKGAPVTSAYSASKFGVLGLTESLAMEVRKHNIRVTALTPSTVATDMAVDLGLTDGNPDKVMQAEDIAEFIVAQLKLNKRTFIKSAGLWSTNP”, “failed”.
For “MLYPSKPNNEALRIQTLRELNVLDTSPEERFDRLTRLAKRLFNVPIALVSLVDADRQWFKSCVGLDVSETSRDISFCGHAILGDQILTVPDAGLDERFHDNPLVVGAPGIRFYAGCPLTVTNGSKLGTLCLIDIKPRDLDDEDRALLRDLARMAEQELAAVQMASMDELTLLSNRRGFEALARHALGVCKRLEKPATLLFFDLNDFKQINDTYGHAEGDGALKTFADVLRIAFRESDVIGRLGGDEFVALLTAADHVETSAIMARLREILDERNATLKRGYDIRFSVGQIEYDAERHPDIEALLADADKAMYLHKQASKRARLEHHHHHH” the value was “failed”.
